In patent US20250326842A1:
Where a chain is given by its changes, count along the chain named.

B1: BGA86 (antibody, human IgG1, V domains shown)
VH: EVQLQESGGGSVKPGGSLQLSCAASGFTFSSYGMSWIRQSPEKKLEWVAEISSGGTYTYYPDTVTGRFTISRDNAKNTLYLEMSSLRSEDTAMYYCARGDPFGYWGQGTLVTVSA
VL: DVVMTQSHKFVSTSVGGRVSITCKASQDVMTAVAWYQQKPGQSPKLLIYSTSYRFTGVPDRFTGSGSGTDFTLTINGVQAEDLAVYSCQQHYSTPRTFGGGTKLEIK
B2: BGA50 (antibody, V domains shown)
VH: EVQLQQSGPEPVKPGASVKISCKASGYSFTGYFLNWVKQSHGKSLEWIGRISPYNGDTFYNQKFKGKATLTVDKSSSTAHMELLSLTSEDSAVYYCGRSGSFTLFYAMDYWGQGTSVTVSS
VL: DIVMSQSPSSLAVSVGENITMTCKSSQSLFHSGNQKNYLAWYQQKPGQSPKLLIYWASTRESGVPDRFTGSGSETDFTLTISSVKAEDLAVYFCQQYYSYPITFGAGTKLELK
B3: BGA38 (antibody, V domains shown)
VH: EVQLQESGAEHVMPGASVKMSCKAAGYTFTDYWMYWVKQRPGQGLEWIGTIDTSDHKTSYNQKFRGKATLTVDESSSTAYMQLSSLTSEDSAVYYCARDFIITVNYPVVDYWGQGTSVTVSS
VL: QNVLTQSPAIMSASPGEKVTITCSAGSSVNYMHWFQQKPGTSPKLWIYSTSNLASGVPARFSGSGSGTSYSLTISRMEAEDAATYYCQQRSSLPFTFGSGTKLEIK
B4: BGA12 (antibody, V domains shown)
VH: QVQLQQSGPEVVRPGVSVKISCKGSGYTFTDYAMHWVKQSHGKSLEWIGVVLTHNDNTNYNQKFKAKATMTVDRSSSTAYMELARLTSEDSAIYYCAREVYYDFDDGNYFPMDYWGQGTSVTVSS
VL: DIVMSQSPSSLAVSVGEKVTMSCKSSQSLLYSDNQKNYLAWYQQKPGQSPKLLIYWASTRESGVPVRFTGSGSGTDFTLTISSVKAEDLAVYYCQQYYSYHTFGGGTKLEIK
B5: BGA381 (antibody, V domains shown)
VH: EVQLVQSGAEVKKPGASVKVSCKASGYTFTDYWIYWVRQAPGQGLEWMGTIDTSDHKTSYNQKFRGRVTMTRDTSTSTVYMELSSLRSEDTAVYYCARDFIITVNYPVVDYWGQGTLVTVSS
VL: QIVLTQSPATLSLSPGERATLSCSAGSSVNYMHWFQQKPGQAPRLLIYSTSNLASGVPARFSGSGSGTDYTLTISSLEPEDFAVYYCQQRSSLPFTFGQGTKLEIK
B6: BGA382 (antibody, V domains shown)
VH: B5 VH
VL: B5 VL with I2N, M32L
B7: BGA383 (antibody, V domains shown)
VH: B5 VH with H56A
VL: B5 VL
B8: BGA861 (antibody, V domains shown)
VH: EVQLVESGGGLVKPGGSLRLSCAASGFTFSSYGISWVRQAPGKGLEWVSEISSGGTYTYYPDTVTGRFTISRDNAKNTLYLQMSSLRAEDTAVYYCARGDPFGYWGQGTLVTVSS
VL: DIQMTQSPSSLSASVGDRVTITCKASQDVMTAVAWYQQKPGKAPKLLIYSTSYRFTGVPSRFSGSGSGTDFTLTISSLQPEDFATYYCQQHYSTPRTFGGGTKVEIK
B9: BGA862 (antibody, V domains shown)
VH: B8 VH with I34L
VL: B8 VL
B10: BGA501 (antibody, V domains shown)
VH: QVQLVQSGAEVKKPGASVKVSCKASGYSFTGYFLNWVRQAPGQGLEWIGRISPYQGDTFYNQKFKGRVTMTTDKSTSTAYMELRSLRSDDTAVYYCGRSGSFTLFYAIDYWGQGTLVTVSS
VL: DIVMTQSPSSLAVSLGERATINCKSSQSLFHSGNQKNYLAWYQQKPGQSPKLLIYWASTRESGVPDRFSGSGSGTDFTLTISSLQAEDVAVYYCQQYYSYPITFGQGTKLEIK
B11: BGA502 (antibody, V domains shown)
VH: B10 VH with I108L
VL: B10 VL
B12: BGA503 (antibody, V domains shown)
VH: B10 VH with T72V, I108L
VL: B10 VL

biological target: Cyno PVRIG recombinant protein (cynomolgus monkey); assay: SPR, antibody captured via anti-human Fc, cyno PVRIG analyte
Sequence (Q6DKI7 other isoform, or with tags, fused parts or gaps limits assumed): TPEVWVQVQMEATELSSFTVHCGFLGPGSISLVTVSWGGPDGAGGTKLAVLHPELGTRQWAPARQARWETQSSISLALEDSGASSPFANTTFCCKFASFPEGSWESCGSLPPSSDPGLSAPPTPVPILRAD

| Binder | Kd [nM] | koff [s⁻¹] | kon [M⁻¹ s⁻¹] |
| --- | --- | --- | --- |
| B1 | 0.674 | 0.00133 | 1.97e+06 |
| B2 | 0.73 | 0.00588 | 8.05e+06 |
| B3 | 0.109 | 0.000157 | 1.44e+06 |
| B4 | 6.31 | 0.000354 | 56100 |

biological target: Cyno PVRIG recombinant protein (cynomolgus monkey); assay: as above; remark: another data set of the same source

| Binder | Kd [nM] | koff [s⁻¹] | kon [M⁻¹ s⁻¹] |
| --- | --- | --- | --- |
| B5 | 0.0738 | 0.000367 | 4.98e+06 |
| B6 | 0.0518 | 0.000243 | 4.7e+06 |
| B7 | 0.0658 | 0.000345 | 5.25e+06 |
| B1 | 0.552 | 0.0017 | 3.08e+06 |
| B8 | 1.01 | 0.00221 | 2.18e+06 |
| B9 | 2.16 | 0.00483 | 2.23e+06 |
| B2 | 0.347 | 0.0032 | 9.21e+06 |
| B10 | 0.426 | 0.00267 | 6.27e+06 |
| B11 | 0.433 | 0.00266 | 6.16e+06 |
| B12 | 0.396 | 0.00294 | 7.44e+06 |
| B3 | 0.0507 | 0.00021 | 4.15e+06 |

biological target: Cyno PVRIG recombinant protein (cynomolgus monkey); assay: ELISA, chimeric antibody on recombinant cyno PVRIG

| Binder | EC50 [nM] |
| --- | --- |
| B1 | 0.0449 |
| B2 | 0.0273 |
| B3 | 0.223 |
| B4 | 0.039 |
